Values quoted from earlier work, collected in paper PMC6104694.
Read-outs that look alike come from different tables or passages of the source.

Key:
[1] = target: presenilin-1 C-terminal fragment 23 amino acid CTF (Homo sapiens) (UniProt P49768)
[2] = target: presenilin-1 C-terminal fragment 23 amino acid CTF (Homo sapiens) (UniProt P49768); remark: listed apart in the source

Chain of KChIP3 (calsenilin) (Q9Y2W7 whole entry): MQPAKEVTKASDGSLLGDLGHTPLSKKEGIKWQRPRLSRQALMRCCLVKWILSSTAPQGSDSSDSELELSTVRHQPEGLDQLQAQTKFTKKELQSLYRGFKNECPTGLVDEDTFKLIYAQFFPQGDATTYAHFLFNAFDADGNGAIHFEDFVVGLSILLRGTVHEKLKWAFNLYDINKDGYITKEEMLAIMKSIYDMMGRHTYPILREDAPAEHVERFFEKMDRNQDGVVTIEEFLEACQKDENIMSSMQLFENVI

Kd [1]: 183 µM
Kd [2]: 0.6 µM
Substance: KChIP3 (calsenilin) (from UniProt Q9Y2W7)
